Measured values as given in article PMC7810697, “Sarcolipin alters SERCA1a interdomain communication by impairing binding of both calcium and ATP” (Scientific Reports, 2021).

Columns and labels:
[1] = target: T1, DDM-solubilized SR (native SERCA1a) (Oryctolagus cuniculus, UniProt P04191); test: Kinetics of phosphorylation from [γ32P]ATP, DDM-solubilized SR; assay type: biochemical, rabbit; conditions: calcium-deprived state
T1 construct: DDM-solubilized native SERCA1a purification; from tissue; host or cells: rabbit skeletal muscle sarcoplasmic reticulum
Method: (§1) Transient formation of the phosphoenzyme intermediate was measured after incubation with [γ^32P]ATP followed by acid quenching, and filtration. For most experiments, 50 µL of enzyme at 10 µg/mL in a buffer containing 50 mM Tes-Tris pH7.5, 1 mM KCl, 5 mM MgCl2, 20% glycerol (w/w) and 0.5 mg/mL DDM, supplemented or not with SLN, was stored on ice. Concentrations of EGTA and calcium are specified in figure legends in order to reach the appropriate [Ca^2+]free and therefore the desired starting state for the ATPase. For kinetics of phosphorylation, we initiate reaction by addition of 2 µM [γ^32P]ATP (5 mCi/µmole), and calcium at 100 µM when specified. Reaction was quenched by addition of 2 mL of cold quenching medium (500 mM TCA + 30 mM H3P0_4) under vigorous mixing, and immediately stored on ice for 20–30 min to improve precipitation, a period of time critical for retention of the precipitate on the filter in presence of detergent. This was followed by filtration on GS filters (Millipore, Saint Quentin-Fallavier, France) and careful rinsing of the filters with diluted quenching medium (50 mM TCA + 3 mM H3P0_4). The amount of radioactivity bound to the filter was estimated by liquid scintillation counting (Perkin Elmer TriCarb Counter). […]

[2] = target: T1, DDM-solubilized SR (native SERCA1a); test: Vanadate inhibition of phosphoenzyme formation, DDM-solubilized SR; assay type: biochemical, rabbit; conditions: Suppl. Fig. 7
Method: as §1

- maximum level of phosphorylated intermediate, DDM-solubilized SR ([1]; Suppl. Fig. 5A): 6.39+/-0.20 nmoles EP/mg ATPase
- t1/2 of phosphorylation, DDM-solubilized SR ([1]; no SLN added (native SLN present), three replicates from two independent experiments, p<0.0001 vs recS1a alone, p=0.002 vs recS1a+Palm-SLN or recS1a+SLN): 10.4 s⁻¹
- EPmax (vanadate series), DDM-solubilized SR [2]: 3.66+/-0.54 nmoles/mg of ATPase
B1: SR: DDM-solubilized native rabbit sarco-endoplasmic reticulum SERCA1a, still containing native SLN (protein)
chain: MEAAHSKSTEECLAYFGVSETTGLTPDQVKRHLEKYGHNELPAEEGKSLWELVIEQFEDLLVRILLLAACISFVLAWFEEGEETITAFVEPFVILLILIANAIVGVWQERNAENAIEALKEYEPEMGKVYRADRKSVQRIKARDIVPGDIVEVAVGDKVPADIRILSIKSTTLRVDQSILTGESVSVIKHTEPVPDPRAVNQDKKNMLFSGTNIAAGKALGIVATTGVSTEIGKIRDQMAATEQDKTPLQQKLDEFGEQLSKVISLICVAVWLINIGHFNDPVHGGSWIRGAIYYFKIAVALAVAAIPEGLPAVITTCLALGTRRMAKKNAIVRSLPSVETLGCTSVICSDKTGTLTTNQMSVCKMFIIDKVDGDFCSLNEFSITGSTYAPEGEVLKNDKPIRSGQFDGLVELATICALCNDSSLDFNETKGVYEKVGEATETALTTLVEKMNVFNTEVRNLSKVERANACNSVIRQLMKKEFTLEFSRDRKSMSVYCSPAKSSRAAVGNKMFVKGAPEGVIDRCNYVRVGTTRVPMTGPVKEKILSVIKEWGTGRDTLRCLALATRDTPPKREEMVLDDSSRFMEYETDLTFVGVVGMLDPPRKEVMGSIQLCRDAGIRVIMITGDNKGTAIAICRRIGIFGENEEVADRAYTGREFDDLPLAEQREACRRACCFARVEPSHKSKIVEYLQSYDEITAMTGDGVNDAPALKKAEIGIAMGSGTAVAKTASEMVLADDNFSTIVAAVEEGRAIYNNMKQFIRYLISSNVGEVVCIFLTAALGLPEALIPVQLLWVNLVTDGLPATALGFNPPDLDIMDRPPRSPKEPLISGWLFFRYMAIGGYVGAATVGAAAWWFMYAEDGPGVTYHQLTHFMQCTEDHPHFEGLDCEIFEAPEPMTMALSVLVTIEMCNALNSLSENQSLMRMPPWVNIWLLGSICLSMSLHFLILYVDPLPMIFKLKALDLTQWLMVLKISLPVIGLDEILKFIARNYLEG
